From publication PMC3909815 (Molecular imaging and biology : MIB : the official …, 2012)

What was measured:
[1] = tested on: mice; experiment: Toxicity of pHe marker in mice; format: in vivo, mouse; conditions: 7 mmol/kg i.p.
[2] = tested on: PC-3 tumour; experiment: Biodistribution/pHe modulation study; format: in vivo, mouse; conditions: PC-3, 24 h p.i., bicarbonate per os 5 days; P=0.053; 95% CI 0%, 51%
[3] = tested on: LNCaP tumour; experiment: Biodistribution/pHe modulation study; format: in vivo, mouse; conditions: 24 h p.i., bicarbonate per os 5 days, P=0.020, 95% CI 10%, 42%
[4] = Radiochemical purity of the preparation over time; format: physicochemical; conditions: measured ≈24 h p.i., preparation used for SPECT imaging
[5] = 60 min p.i., i.v., mean±SD of 2 independent studies
[6] = Biodistribution of 99mTc-AH114567 in tumoured mice

Molecule | toxicity for mice [1] | tumour uptake ratio (uptake difference with bicarbonate relative to standard) [2] [%] | tumour uptake ratio (uptake difference with bicarbonate relative to standard) [3] [%] | radiochemical purity (RCP) of the preparation [4] [%] | integrated radio-HPLC signal of the parent compound in rat plasma [5] [%] | lung/blood uptake ratio at 4 h p.i. ([6]; 4 h p.i.) | lung/blood uptake ratio at 24 h p.i. ([6]; 24 h p.i.) | kidney uptake at 24 h p.i. ([6]; 24 h p.i., C57BL/6 mice) [% ID] | blood uptake at 24 h p.i. ([6]; 24 h p.i., all three models) [% ID/g] | lung/blood uptake ratio, initial ([6]; initially) | uptake in liver ([6]; over the first 24 h p.i., liver+gall bladder, LLC tumoured C57BL/6 mice) [% ID] | skin uptake ([6]; range over time points) [% ID] | uptake in bone ([6]; typically) [% ID]
CCOP(=O)(OCC)C1(C)CCCN1 (stereo not shown) | toxic |  |  |  |  |  |  |  |  |  |  |  | 
ACEQNPIY{WARYADWLFTTPLLLLDLALLV}DADEGTG [99mTc-AH114567] |  | 29 | 29 | ≥ 85 | 86±6 | ≈ 2 | ca. 1 | ~3 | 1 to 2 | ≈ 3 | 25 to 15 | 3 to 8 | 2 to 3
